Data from article PMC5560056 (Molecular cell, 2016).
Like-named read-outs stand apart in the source and are kept apart here.

Key:
[1] = biological target: T1, recombinant human Pds5B_(21–1120) (human, UniProt Q9NTI5 21-1120); test: ITC
T1 sequence (looked up): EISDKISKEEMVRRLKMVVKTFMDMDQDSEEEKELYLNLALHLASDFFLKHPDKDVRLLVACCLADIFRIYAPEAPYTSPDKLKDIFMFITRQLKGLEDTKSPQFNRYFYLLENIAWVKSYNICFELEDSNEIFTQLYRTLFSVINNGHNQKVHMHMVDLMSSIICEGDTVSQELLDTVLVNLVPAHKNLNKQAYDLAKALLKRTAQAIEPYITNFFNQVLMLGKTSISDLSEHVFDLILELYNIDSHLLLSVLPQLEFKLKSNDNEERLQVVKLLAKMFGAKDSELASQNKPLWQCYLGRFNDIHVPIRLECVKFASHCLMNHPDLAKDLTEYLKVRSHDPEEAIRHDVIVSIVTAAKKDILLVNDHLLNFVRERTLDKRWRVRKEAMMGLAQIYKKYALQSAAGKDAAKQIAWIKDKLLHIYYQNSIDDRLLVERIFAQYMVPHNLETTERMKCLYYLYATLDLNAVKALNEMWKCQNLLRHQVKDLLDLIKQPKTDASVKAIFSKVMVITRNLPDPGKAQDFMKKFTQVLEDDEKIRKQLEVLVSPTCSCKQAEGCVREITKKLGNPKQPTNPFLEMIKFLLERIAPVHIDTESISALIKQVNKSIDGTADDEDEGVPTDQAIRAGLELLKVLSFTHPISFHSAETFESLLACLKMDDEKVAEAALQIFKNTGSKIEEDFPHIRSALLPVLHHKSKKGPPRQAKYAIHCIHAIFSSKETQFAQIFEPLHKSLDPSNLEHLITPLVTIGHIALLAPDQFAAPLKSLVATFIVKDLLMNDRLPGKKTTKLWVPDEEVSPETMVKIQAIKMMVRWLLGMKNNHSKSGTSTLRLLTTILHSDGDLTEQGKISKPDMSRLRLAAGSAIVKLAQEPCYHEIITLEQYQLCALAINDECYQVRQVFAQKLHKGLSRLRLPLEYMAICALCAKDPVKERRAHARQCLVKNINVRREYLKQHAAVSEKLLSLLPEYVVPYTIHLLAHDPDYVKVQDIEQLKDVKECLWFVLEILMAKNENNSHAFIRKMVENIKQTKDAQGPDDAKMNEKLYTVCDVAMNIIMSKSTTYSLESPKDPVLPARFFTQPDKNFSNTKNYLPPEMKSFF

[2] = biological target: T2, recombinant human Pds5B_(21–1120) Y445A/N447A (human, UniProt Q9NTI5 21-1120, Y445A | N447A); test: pull-down
T2 sequence (looked up): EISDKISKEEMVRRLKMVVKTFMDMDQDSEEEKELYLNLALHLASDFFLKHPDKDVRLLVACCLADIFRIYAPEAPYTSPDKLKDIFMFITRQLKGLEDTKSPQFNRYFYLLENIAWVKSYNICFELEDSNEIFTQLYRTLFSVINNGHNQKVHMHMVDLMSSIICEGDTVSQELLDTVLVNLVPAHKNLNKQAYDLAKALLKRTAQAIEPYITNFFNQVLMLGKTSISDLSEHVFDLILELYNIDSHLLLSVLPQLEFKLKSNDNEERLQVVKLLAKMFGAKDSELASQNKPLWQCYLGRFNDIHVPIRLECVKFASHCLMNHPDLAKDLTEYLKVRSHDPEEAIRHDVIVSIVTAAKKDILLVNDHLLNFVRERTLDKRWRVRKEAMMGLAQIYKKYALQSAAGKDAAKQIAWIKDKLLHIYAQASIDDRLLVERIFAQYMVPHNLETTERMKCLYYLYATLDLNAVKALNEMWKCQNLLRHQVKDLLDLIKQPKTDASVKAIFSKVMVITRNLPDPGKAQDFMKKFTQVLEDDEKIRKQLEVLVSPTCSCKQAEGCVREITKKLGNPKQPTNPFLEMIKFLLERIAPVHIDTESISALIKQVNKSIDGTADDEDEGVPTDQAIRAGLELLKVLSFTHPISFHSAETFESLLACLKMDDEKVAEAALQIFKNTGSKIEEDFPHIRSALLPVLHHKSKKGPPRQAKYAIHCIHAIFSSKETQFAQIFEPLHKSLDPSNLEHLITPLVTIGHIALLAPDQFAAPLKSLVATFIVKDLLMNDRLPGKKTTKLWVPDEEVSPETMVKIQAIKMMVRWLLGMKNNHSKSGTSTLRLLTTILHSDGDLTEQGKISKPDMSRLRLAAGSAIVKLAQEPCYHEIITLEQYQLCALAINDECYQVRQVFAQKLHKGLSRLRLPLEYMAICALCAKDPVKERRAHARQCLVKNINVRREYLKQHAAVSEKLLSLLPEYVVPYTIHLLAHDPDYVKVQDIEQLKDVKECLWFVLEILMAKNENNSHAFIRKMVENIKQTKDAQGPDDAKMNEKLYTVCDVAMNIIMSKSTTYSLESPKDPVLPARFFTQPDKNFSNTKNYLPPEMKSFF

[3] = biological target: T3, recombinant human Pds5B_(1–1120) (human, UniProt Q9NTI5 1-1120); test: pull-down
T3 sequence (looked up): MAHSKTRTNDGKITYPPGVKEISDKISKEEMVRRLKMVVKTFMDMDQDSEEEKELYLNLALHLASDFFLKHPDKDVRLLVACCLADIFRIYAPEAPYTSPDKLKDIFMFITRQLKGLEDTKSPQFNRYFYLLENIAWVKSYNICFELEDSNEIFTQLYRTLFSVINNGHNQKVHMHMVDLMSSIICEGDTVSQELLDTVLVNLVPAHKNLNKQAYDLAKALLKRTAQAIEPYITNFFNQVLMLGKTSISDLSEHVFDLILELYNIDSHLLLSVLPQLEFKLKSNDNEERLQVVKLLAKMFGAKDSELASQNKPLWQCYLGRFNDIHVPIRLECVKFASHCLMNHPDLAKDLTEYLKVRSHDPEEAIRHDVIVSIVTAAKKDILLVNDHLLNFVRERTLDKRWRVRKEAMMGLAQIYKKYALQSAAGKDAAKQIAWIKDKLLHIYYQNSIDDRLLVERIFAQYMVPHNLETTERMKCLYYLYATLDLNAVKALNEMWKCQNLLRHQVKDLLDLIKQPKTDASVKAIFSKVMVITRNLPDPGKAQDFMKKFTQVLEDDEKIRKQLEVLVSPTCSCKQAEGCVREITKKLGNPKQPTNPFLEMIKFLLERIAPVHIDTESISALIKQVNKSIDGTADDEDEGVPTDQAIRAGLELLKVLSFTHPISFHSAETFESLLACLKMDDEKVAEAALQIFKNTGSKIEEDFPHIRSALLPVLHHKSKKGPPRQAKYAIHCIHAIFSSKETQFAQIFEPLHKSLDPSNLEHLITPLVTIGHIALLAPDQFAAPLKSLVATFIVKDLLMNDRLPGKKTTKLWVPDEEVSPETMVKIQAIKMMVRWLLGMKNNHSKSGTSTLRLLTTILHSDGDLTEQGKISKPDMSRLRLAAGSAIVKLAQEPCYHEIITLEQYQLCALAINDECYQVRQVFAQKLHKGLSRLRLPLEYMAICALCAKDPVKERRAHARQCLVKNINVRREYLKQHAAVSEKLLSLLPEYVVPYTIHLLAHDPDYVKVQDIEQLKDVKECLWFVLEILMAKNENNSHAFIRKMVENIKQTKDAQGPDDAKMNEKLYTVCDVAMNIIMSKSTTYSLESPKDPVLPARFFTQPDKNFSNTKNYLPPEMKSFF

[4] = biological target: T3, recombinant human Pds5B_(1–1120); test: pull-down; remark: listed apart in the source
[5] = biological target: T4, selenomethionine-containing Pds5B_(21–1120) (human, UniProt Q9NTI5 21-1120, selenomethionine-containing); test: crystal structure
T4 sequence (looked up): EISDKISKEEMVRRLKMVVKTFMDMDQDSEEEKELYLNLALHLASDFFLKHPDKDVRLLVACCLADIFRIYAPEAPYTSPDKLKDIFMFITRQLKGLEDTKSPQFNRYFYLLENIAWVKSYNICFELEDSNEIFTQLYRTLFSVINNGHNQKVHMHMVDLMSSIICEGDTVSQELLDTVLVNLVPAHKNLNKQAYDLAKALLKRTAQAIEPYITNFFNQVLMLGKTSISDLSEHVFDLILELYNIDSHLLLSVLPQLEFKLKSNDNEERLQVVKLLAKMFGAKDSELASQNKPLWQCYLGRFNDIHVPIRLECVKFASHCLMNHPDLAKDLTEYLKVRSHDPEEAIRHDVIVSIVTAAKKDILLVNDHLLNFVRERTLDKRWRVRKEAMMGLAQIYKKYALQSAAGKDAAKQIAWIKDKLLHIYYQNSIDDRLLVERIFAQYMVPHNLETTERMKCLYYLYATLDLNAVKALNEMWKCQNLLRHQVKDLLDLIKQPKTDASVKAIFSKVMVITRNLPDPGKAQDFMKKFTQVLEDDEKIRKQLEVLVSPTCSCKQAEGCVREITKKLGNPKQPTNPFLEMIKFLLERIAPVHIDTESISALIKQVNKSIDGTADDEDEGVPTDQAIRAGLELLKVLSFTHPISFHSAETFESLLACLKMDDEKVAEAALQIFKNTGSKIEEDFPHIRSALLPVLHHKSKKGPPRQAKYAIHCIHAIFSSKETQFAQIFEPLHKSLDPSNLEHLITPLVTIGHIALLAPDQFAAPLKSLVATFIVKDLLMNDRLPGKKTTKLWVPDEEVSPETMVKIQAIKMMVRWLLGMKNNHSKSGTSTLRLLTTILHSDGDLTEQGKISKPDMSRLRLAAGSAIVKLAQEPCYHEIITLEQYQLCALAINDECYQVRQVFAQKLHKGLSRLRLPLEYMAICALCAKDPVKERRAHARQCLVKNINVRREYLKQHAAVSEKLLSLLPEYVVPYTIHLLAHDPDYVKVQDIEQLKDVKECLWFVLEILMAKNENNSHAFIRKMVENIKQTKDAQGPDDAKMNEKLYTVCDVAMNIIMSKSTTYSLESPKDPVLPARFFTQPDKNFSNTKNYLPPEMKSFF

B1: recombinant purified Scc1_(76–150) (domain or fragment, human, UniProt O60216 76-150, looked up)
chain: ADCNEAFIKIKMAFRPGVVDLPEENREAAYNAITLPEEFHDFDQPLPDLDDIDVAQQFSLNQSRVEEITMREEVG
B1 showed a Kd [1] of 4.3 nM.

B2: GST-Scc1_(76–150) (domain or fragment, human, UniProt O60216 76-150, looked up)
chain: ADCNEAFIKIKMAFRPGVVDLPEENREAAYNAITLPEEFHDFDQPLPDLDDIDVAQQFSLNQSRVEEITMREEVG
B2: binds [2].

LDARDLEMSKKVRRSYSRLETLGSASTSTPGRRSCFGFEGL (domain or fragment, human, UniProt Q96FF9 131-171, looked up) [Sororin residues 131–171]: binds [3].

DARDLEMSKKVRRSYSRLETLGSASTSTPGRRSCFGFEGL (peptide, UniProt Q96FF9 132-171, looked up) [synthetic Sororin peptide (residues 132–171)]: binds [4].

MTSRFGKTYSRKGGNGSSKFDEVFSNKRTTLST (peptide, UniProt Q7Z5K2 1-33, looked up) [synthetic Wapl_(1–33) peptide]: binds [5].
